The values that follow are results of earlier work, collected in patent US20100298348A1, “Method of Decreasing Ubiquitylated Protein Levels” (priority 2009, published 2010).

One series concerns gamma secretase. The following applies: in vivo; cited from earlier work.
Another series deals with mouse model of AD. The following applies: cited from earlier work.
The next series relates to hippocampal slices. The following applies: cited from earlier work.

As for `C[C@@H](C(=O)O)c1ccc(-c2ccccc2)c(F)c1` [Flurizan], in the series on gamma secretase, the “outcome of Phase III clinical trial” value was “failed”.

B1: Uch-L1: ubiquitin hydrolase (protein, UniProt P09936 1-220, looked up)
Ubiquitin carboxyl-terminal …: MQLKPMEINPEMLNKVLSRLGVAGQWRFVDVLGLEEESLGSVPAPACALLLLFPLTAQHENFRKKQIEELKGQEVSPKVYFMKQTIGNSCGTIGLIHAVANNQDKLGFEDGSVLKQFLSETEKMSPEDRAKCFEKNEAIQAAHDAVAQEGQCRVDDKVNFHFILFNNVDGHLYELDGRMPFPVNHGASSEDTLLKDAAKVCREFTEREQGEVRFSAVALC
On to B1, for which the learning and memory result with mouse model of AD was “improves”. Also, the “Aβ-induced decrease in synaptic function” value in the series with hippocampal slices is given as “reverses”.
